The values below are quoted from earlier work in publication PMC6214620.

The test system of this data set is Lys53. To be noted: ferric; His-Fe-Lys converting to a water-bound, lysine-deligated state.

For “Truncated hemoglobin THB1 (Chlamydomonas reinhardtii)”, the pKa is ~ 6.5.
